Measured values from paper PMC7382241, “Genomic discovery of an evolutionarily programmed modality for small-molecule targeting of an intractable protein surface” (Proceedings of the National Academy of Sciences of the …, 2020).

Biological target: the molecule itself
Experiment: crystal structure; CEP250_(11.4) with three-molar excess of FKBP12 and nine-molar excess of WDB002, ternary complex isolated by SEC; crystals in 0.1 M Hepes 7.0, 0.2 M sodium malonate, 21% PEG 3350

B1: CEP250_(11.4) (residues 2,134 to 2,231) (domain or fragment, human, UniProt Q9BV73 2134-2231, looked up)
chain: MEEQSLKLDSLEPRLQRELERLQAALRQTEAREIEWREKAQDLALSLAQTKASVSSLQEVAMFLQASVLERDSEQQRLQDELELTRRALEKERLHSPG
notes: human CEP250 residues 2,134 to 2,231; forms a homodimeric coiled coil in the crystal; tags not specified in the main text; Tags are in SI Materials and Methods; also called 11.4 kDa degradation product of CEP250; source: E. coli BL21(DE3)pLysS
stoichiometry N: 2
